Laboratory results taken from publication PMC4369446 (2015).

T1: SLC1A1 peptide on HLA-A*02:01 (human)
T1 peptide: VLTGLAIHSI

T2: Monocarboxylate transporter 8 peptide on HLA-A*02:01 (human)
T2 peptide: AVAFIGLHTS

T3: P47 peptide on HLA-A*02:01 (human)
T3 peptide: RISDIRLFIV

T4: G-protein coupled receptor RE2 peptide on HLA-A*02:01 (human)
T4 peptide: RITDLGLSPH

T5: MRP3 peptide on HLA-A*02:01 (human)
T5 peptide: NVADIGFHDV

T6: ABC transporter MOAT-C peptide on HLA-A*02:01 (human)
T6 peptide: RISDIGLADL

T7: KIAA0935 peptide on HLA-A*02:01 (human)
T7 peptide: RVTDEAGHPV

T8: Endothelin-1 receptor peptide on HLA-A*02:01 (human)
T8 peptide: RVQGIGIPLV

T9: KIAA0735 peptide on HLA-A*02:01 (human)
T9 peptide: LISGIGIGGA

T10: Hypothetical 20 kD protein peptide on HLA-A*02:01 (human)
T10 peptide: RISAIILHPN

T11: cMOAT2 peptide on HLA-A*02:01 (human)
T11 peptide: NVADIGLHDV

T12: IGHG1 peptide on HLA-A*02:01 (human)
T12 peptide: RLSELAIFGV

T13: Prostaglandin transporter peptide on HLA-A*02:01 (human)
T13 peptide: LLAGIGTVPI


Experiments:
Test in all cases: cytokine release
[1] = molecular target: T1, SLC1A1 peptide on HLA-A*02:01
[2] = molecular target: T2, Monocarboxylate transporter 8 peptide …
[3] = molecular target: T3, P47 peptide on HLA-A*02:01
[4] = molecular target: T4, G-protein coupled receptor RE2 peptide …
[5] = molecular target: T5, MRP3 peptide on HLA-A*02:01
[6] = molecular target: T6, ABC transporter MOAT-C peptide on …
[7] = molecular target: T7, KIAA0935 peptide on HLA-A*02:01
[8] = molecular target: T8, Endothelin-1 receptor peptide on …
[9] = molecular target: T9, KIAA0735 peptide on HLA-A*02:01
[10] = molecular target: T10, Hypothetical 20 kD protein peptide on …
[11] = molecular target: T11, cMOAT2 peptide on HLA-A*02:01
[12] = molecular target: T12, IGHG1 peptide on HLA-A*02:01
[13] = molecular target: T13, Prostaglandin transporter peptide on …

Binder | binding result [1] | binding result [2] | binding result [3] | binding result [4] | binding result [5] | binding result [6] | binding result [7] | binding result [8] | binding result [9] | binding result [10] | binding result [11] | binding result [12] | binding result [13]
SIG35α / TRBV27 Cl.758 (TCR) alpha TRAV12-2 J35 CDR3: CAVSIGFGNVL beta TRBV27 TRBJ2-2 CDR3: CASSPRLAGDGELFF | no recognition | no recognition | no recognition | recognises | no recognition | no recognition | no recognition | no recognition | no recognition | no recognition | no recognition | no recognition | recognises
SIG35α / TRBV27 Cl.1606 (TCR) alpha TRAV12-2 J35 CDR3: CAVSIGFGNVL beta TRBV27 TRBJ2-7 CDR3: CASSLLGSYEQYF | recognises | no recognition | no recognition | recognises | no recognition | no recognition | no recognition | no recognition | recognises | no recognition | no recognition | no recognition | recognises
SIG35α / TRBV27 Cl.1593 (TCR) alpha TRAV12-2 J35 CDR3: CAVSIGFGNVL beta TRBV27 TRBJ1-5 CDR3: CASGNNQPQHF | no recognition | no recognition | no recognition | recognises | no recognition | no recognition | no recognition | no recognition | recognises | no recognition | no recognition | no recognition | recognises
SIG35α / TRBV27 Cl.1086 (TCR) alpha TRAV12-2 J35 CDR3: CAVSIGFGNVL beta TRBV27 TRBJ1-2 CDR3: CASSLHGPGGYTF | no recognition | no recognition | no recognition | no recognition | no recognition | no recognition | no recognition | no recognition | no recognition | no recognition | no recognition | no recognition | recognises
SIG35α / TRBV27 Cl.788 (TCR) alpha TRAV12-2 J35 CDR3: CAVSIGFGNVL beta TRBV27 TRBJ2-7 CDR3: CASGPSYEQYF | no recognition | no recognition | no recognition | recognises | no recognition | no recognition | no recognition | no recognition | no recognition | no recognition | no recognition | no recognition | recognises

Second part, the binder after the results:

binding result [1] | binding result [2] | binding result [3] | binding result [4] | binding result [5] | binding result [6] | binding result [7] | binding result [8] | binding result [9] | binding result [10] | binding result [11] | binding result [12] | binding result [13] | Binder
no recognition | no recognition | no recognition | no recognition | no recognition | no recognition | no recognition | no recognition | no recognition | no recognition | no recognition | no recognition | recognises | SIG35α / TRBV27 Cl.413 (TCR) alpha TRAV12-2 J35 CDR3: CAVSIGFGNVL beta TRBV27 TRBJ1-4 CDR3: CASSVFGGDMGEKLFF
no recognition | no recognition | no recognition | recognises | no recognition | no recognition | no recognition | no recognition | recognises | no recognition | no recognition | no recognition | recognises | SIG35α / TRBV27 Cl.1599 (TCR) alpha TRAV12-2 J35 CDR3: CAVSIGFGNVL beta TRBV27 TRBJ1-1 CDR3: CASSFLGAMAEAFF
no recognition | no recognition | no recognition | recognises | no recognition | no recognition | no recognition | no recognition | recognises | no recognition | no recognition | no recognition | recognises | SIG35α / TRBV27 Cl.794 (TCR) alpha TRAV12-2 J35 CDR3: CAVSIGFGNVL beta TRBV27 TRBJ1-2 CDR3: CASSLLGDYGYTF
recognises | no recognition | no recognition | recognises | no recognition | no recognition | no recognition | no recognition | recognises | no recognition | no recognition | no recognition | recognises | SIG35α / TRBV27 Cl.1574 (TCR) alpha TRAV12-2 J35 CDR3: CAVSIGFGNVL beta TRBV27 TRBJ1-1 CDR3: CASSPWERINTEAFF
no recognition | no recognition | no recognition | recognises | no recognition | no recognition | no recognition | no recognition | recognises | no recognition | no recognition | no recognition | recognises | SIG35α / TRBV27 Cl.523 (TCR) alpha TRAV12-2 J35 CDR3: CAVSIGFGNVL beta TRBV27 TRBJ2-7 CDR3: CASGSYEQYF
